Experimental data as given in PMC2957411.

What was measured:
[1] = target: T1, His6-HrpL (alternative sigma factor);core RNA polymerase (Epicentre) (Dickeya dadantii 3937;) (UniProt E0SE58+P0A7Z4+P0A8V2+P0A8T7+P0A800); assay: EMSA
[2] = target: T1, His6-HrpL (alternative sigma factor);core RNA polymerase (Epicentre) (Dickeya dadantii 3937;); assay: competition

AAGTATCTGCAACGGATGCCCGCTCCGATCCCGATGCGGGCATCATGATGGATACTGGTTAATGAGTGACGCCAGCGGTGAAACGGTTCCCTGCCGTCGCCGGTTCGCCGCAAAAAAAGAAACCG (double strand) [hrpN promoter fragment with hrp box]
binding [1]: binds

CTTGGTGGCTGAGTCCATCTGGCCGTCGGTGATTGAGCTGATAGCATCGGTTTTCATTTTCTGCTCCTGGGCAGCGGTGGTCATCGCCGTGGTCGATGCCATGGTTTTGTCCAGAGACTGC (double strand) [hrpA ORF internal fragment (hrpAORF), no hrp box]
binding [2]: no binding

GATTTCGCTATGAACTTTGCGACTTACACAGTCATCGTGTTCATAGATTAAGTAGGAGATAATGCGAGGTGGTTCCGAAAGATATTCACTTTTTTCCCCTGGTGGTGATAACAGGATACAGCC (double strand) [hrpA promoter fragment with hrp box]
binding [1]: binds
